These results are taken from publication PMC12311017.

The target in the assay is USP1/UAF1 (USP1 res. 21-785, G670A + G671A, with UAF1 res. 9-677) (UniProt O94782). The experiment in a line: global kinetic model.
UniProt O94782, sequence (O94782 21-785 G670A/G671A, chain 1 of 2): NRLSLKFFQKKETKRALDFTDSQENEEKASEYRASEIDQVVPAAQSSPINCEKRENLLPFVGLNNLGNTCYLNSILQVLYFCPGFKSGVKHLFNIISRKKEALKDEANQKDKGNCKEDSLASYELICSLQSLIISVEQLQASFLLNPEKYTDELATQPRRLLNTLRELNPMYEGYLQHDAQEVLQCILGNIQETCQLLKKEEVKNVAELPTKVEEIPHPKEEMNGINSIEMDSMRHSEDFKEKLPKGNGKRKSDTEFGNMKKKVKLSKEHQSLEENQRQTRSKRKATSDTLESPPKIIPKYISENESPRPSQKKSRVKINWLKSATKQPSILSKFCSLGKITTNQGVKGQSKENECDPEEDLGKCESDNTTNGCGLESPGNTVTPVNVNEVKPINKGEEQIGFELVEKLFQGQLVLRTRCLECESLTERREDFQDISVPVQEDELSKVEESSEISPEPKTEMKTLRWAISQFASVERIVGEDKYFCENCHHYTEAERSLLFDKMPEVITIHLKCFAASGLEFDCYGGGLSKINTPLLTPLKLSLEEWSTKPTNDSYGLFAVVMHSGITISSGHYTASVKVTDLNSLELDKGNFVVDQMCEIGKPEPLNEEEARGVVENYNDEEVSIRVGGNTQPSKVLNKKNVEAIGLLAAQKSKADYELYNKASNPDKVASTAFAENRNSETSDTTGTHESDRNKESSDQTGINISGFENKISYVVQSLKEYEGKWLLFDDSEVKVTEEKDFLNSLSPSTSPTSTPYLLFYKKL
UniProt O94782, sequence (Q8TAF3 9-677, chain 2 of 2, further chain): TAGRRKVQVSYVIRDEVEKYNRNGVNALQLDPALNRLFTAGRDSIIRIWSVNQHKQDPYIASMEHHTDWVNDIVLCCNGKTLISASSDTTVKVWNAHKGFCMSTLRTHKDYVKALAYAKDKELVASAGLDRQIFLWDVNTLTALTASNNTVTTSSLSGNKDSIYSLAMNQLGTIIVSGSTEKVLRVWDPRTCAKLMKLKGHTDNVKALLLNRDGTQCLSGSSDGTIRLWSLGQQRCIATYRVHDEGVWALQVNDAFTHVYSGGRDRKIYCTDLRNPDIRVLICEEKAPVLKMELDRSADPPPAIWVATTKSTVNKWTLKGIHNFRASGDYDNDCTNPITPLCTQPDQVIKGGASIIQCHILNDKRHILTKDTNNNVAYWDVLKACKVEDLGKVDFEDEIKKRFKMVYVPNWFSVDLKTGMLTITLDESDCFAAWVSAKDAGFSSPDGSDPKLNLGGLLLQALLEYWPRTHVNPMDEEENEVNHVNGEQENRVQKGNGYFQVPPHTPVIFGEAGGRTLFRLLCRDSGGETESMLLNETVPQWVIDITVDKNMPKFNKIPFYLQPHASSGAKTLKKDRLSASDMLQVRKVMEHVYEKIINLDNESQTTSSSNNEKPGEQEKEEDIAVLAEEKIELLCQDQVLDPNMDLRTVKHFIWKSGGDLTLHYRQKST

With “K63-linked diubiquitinated PCNA (from UniProt P12004 1-261; P0CG47 1-76; P0CG47 1-76) (complex)”, the koff (in general, a measure of how fast the partners let go of each other) was 1240 s⁻¹.
